We go through two molecules from paper doi:10.1101/2023.09.29.560221 (bioRxiv, 2023).

Data set [1] addresses T1, human Topoisomerase I (human, UniProt P11387 1-765).
T1 sequence: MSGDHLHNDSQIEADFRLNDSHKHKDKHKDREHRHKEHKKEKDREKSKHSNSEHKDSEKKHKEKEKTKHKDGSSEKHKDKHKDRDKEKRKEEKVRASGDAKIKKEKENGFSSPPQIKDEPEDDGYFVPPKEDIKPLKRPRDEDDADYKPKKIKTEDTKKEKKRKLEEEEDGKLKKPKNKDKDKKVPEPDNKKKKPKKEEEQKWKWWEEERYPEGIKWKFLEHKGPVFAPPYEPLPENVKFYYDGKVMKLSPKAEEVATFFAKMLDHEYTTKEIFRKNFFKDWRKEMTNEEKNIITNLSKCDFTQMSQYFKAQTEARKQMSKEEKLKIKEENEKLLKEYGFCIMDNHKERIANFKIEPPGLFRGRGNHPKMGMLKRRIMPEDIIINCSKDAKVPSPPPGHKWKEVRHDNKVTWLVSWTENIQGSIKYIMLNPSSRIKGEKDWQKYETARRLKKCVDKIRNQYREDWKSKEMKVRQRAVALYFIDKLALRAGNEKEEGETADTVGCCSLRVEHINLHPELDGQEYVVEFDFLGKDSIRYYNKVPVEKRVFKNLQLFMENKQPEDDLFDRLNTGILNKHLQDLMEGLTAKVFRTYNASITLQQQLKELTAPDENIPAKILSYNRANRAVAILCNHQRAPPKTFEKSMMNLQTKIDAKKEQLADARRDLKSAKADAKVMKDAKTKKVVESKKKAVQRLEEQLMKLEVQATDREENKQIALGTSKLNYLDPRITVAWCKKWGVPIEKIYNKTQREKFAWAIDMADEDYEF
The data set is described as follows: ELISA.

Data set [2] concerns the molecule itself. The data set is described as follows: native gel or EMSA. Background: Mobility shift assays separate free from complexed probe on a gel.

Residue numbers refer to the chain shown, from its start. Names and notes keep the numbering of the source.

B1: SV40 Large T-antigen (LT), wild type, purified from insect cells (natural protein)
chain: MDKVLNREESLQLMDLLGLERSAWGNIPLMRKAYLKKCKEFHPDKGGDEEKMKKMNTLYKKMEDGVKYAHQPDFGGFWDATEIPTYGTDEWEQWWNAFNEENLFCSEEMPSSDDEATADSQHSTPPKKKRKVEDPKDFPSELLSFLSHAVFSNRTLACFAIYTTKEKAALLYKKIMEKYSVTFISRHNSYNHNILFFLTPHRHRVSAINNYAQKLCTFSFLICKGVNKEYLMYSALTRDPFSVIEESLPGGLKEHDFNPEEAEETKQVSWKLVTEYAMETKCDDVLLLLGMYLEFQYSFEMCLKCIKKEQPSHYKYHEKHYANAAIFADSKNQKTICQQAVDTVLAKKRVDSLQLTREQMLTNRFNDLLDRMDIMFGSTGSADIEEWMAGVAWLHCLLPKMDSVVYDFLKCMVYNIPKKRYWLFKGPIDSGKTTLAAALLELCGGKALNVNLPLDRLNFELGVAIDQFLVVFEDVKGTGGESRDLPSGQGINNLDNLRDYLDGSVKVNLEKKHLNKRTQIFPPGIVTMNEYSVPKTLQARFVKQIDFRPKDYLKHCLERSEFLLEKRIIQSGIALLLMLIWYRPVAEFAQSIQSRIVEWKERLDKEFSLSVYQKMKFNVAMGIGVLDWLRNSDDDDEDSQENADKNEDGGEKNMEDSGHETGIDSQSQGSFQAPQSSQSVHDHNQPYHICRGFTCFKKPPTPPPEPET
Take B1: the binding result in data set [1] was “binds”.

B2: SV40 Large T-antigen T518D (phosphomimetic mutant), purified from insect cells (natural protein)
chain: B1 chain with T518D
The term stoichiometry N denotes a count of units in the complex or per binding partner. For the molecule B2, in data set [1], the binding result is reported as “binds”. Further, the “stoichiometry N” value in data set [2] stood at 6.
